B1: Protein S100-G, P02633 (parent)
chain: MSAKKSPEELKGIFEKYAAKEGDPNQLSKEELKLLLQTEFPSLLKGPSTLDELFEELDKNGDGEVSFEEFQVLVKKISQ

Variants of: B1
Conditions: Bos taurus; pH 7.1; 25 °C; Urea; CD; PIPES 20 mM; reversible: yes; structure 1IGV; whole UniProt chain shown

Y17F
ddG of mutation (higher = less stable): 1.19 kcal/mol
denaturant m value: 0.89 kcal/mol/M
denaturant midpoint (higher = more stable): 4.1 M
unfolding free energy: 3.59 kcal/mol

E21Q
ddG of mutation (higher = less stable): -0.48 kcal/mol
denaturant m value: 0.91 kcal/mol/M
denaturant midpoint (higher = more stable): 5.6 M
unfolding free energy: 5.26 kcal/mol

P24G
ddG of mutation (higher = less stable): 1.19 kcal/mol
denaturant m value: 0.79 kcal/mol/M
denaturant midpoint (higher = more stable): 4.7 M
unfolding free energy: 3.59 kcal/mol

Reference: FireProtDB (doi:10.1111/j.1432-1033.1988.tb14214.x)
